Data on 20 sequences can be found in the DeepSol protein solubility set.

The data set can be described thus: soluble on expression in E. coli; label from the status in PepcDB or PDB records.
As to “SAEGEEEGGDVLISVGHANVLGYTLREFLQLLQHITIGTVLQIKVYRDFINIPEEWQEIYDLIPEAKFPVTSTPKKIELAKDESFTSSDDNENVDLDKRLQYYRYPWSTVHHPARRPISISRDWHGYKKKNHTISVGKDINCDVMIHRDDKKEVRAPSPYWIMVKQDNESSSSSTSSTSDAFWLEDCAQVEEGKAQLVSKVG”, the “soluble on expression in E. coli” value is given as “soluble”.

With “ESVKGAQTDLTSLTDESQEKTLENGSPSSKIAVLEVSGTIQDNGDSSSLLGADGYNHRTFLKNLERAKDDKTVKGIVLKVNSPGGGVYESAEIHKKLEEIKKETKKPIYVSMGSMAASGGYYISTAADKIFATPETLTGSLGVIMESVNYSKLADKLGISFETIKSGAHKDIMSPSREMTKEEKNIMQSMVDNSYEGFVDVISKGRGMPKAEVKKIADGRVYDGRQAKKLNLVDELGFYDDTITAMKKDHKDLKNASVISYEESFGLGSLFSMGANKMFKSEIDFLNMREILSQSGS”, the “soluble on expression in E. coli” value was “not soluble”.

Consider “MTQTVKLDILSDPICPWCYIGKTQLDKALAAIPDHPFVIEWHPFQLNPDMAPEGMDRREYLERKFGGKEGAVRAYAPVVEHAEKAGLAIDFEAMQRTPNTLDAHRLIHWAGVEGKQTEAVDALFAAYFTEGRDIGDAEVLADIADSIGMDAAVVLKLLKSDADRDDIAKRDSHSREMGVSSVPTFIVANQHAVPGAQPPELWEQVIREIMSQIETTSA”, for which the “soluble on expression in E. coli” value is “not soluble”.

Regarding “MIFDKNFSYAFDENACEKCGGKCCTGESGNIFASKEELEVLRKHLNLESKEFAEKYLRKVGFKMSFKEVECEDGFACIFFDTQKRNCSIYDFRPKQCRTFPFWEYFKTHQKELEKECIGICYLSLEHHHHHH”, the “soluble on expression in E. coli” value is given as “not soluble”.

“MYGAVVVAGDHQRGAGVGMLRTRKLAQVAEINVVKSLDYLRLWHPILQNLRGRDFPTIELLLLRWRPARSAPPLSPPRTQDFENPWSPKSHRTALPWVFVFLSSRSRDRGPKNPTRAQWVPMNR”: the “soluble on expression in E. coli” value is reported as “not soluble”.

In the case of “MSRYCSQCGKSRKACICQWIVPLASGVELIILQHTSEAHRPLGTARILNLSLKNCTCLIGEDFSDDAQLNALLTDEAYQHFILYPSEQSQCLSDIACTESERTRKTRLILLDGTWKKAYKMWQLSTNLHTLTTVKLPEDLQGHYTIRKAPSDNSLSTVEAGFYALSLLEPDNDFSPLLNAFDRMIEFQIAQMPPGVFEKNYLNKLEHHHHHH”, the “soluble on expression in E. coli” value is “not soluble”.

“MRRTVRYILATSNPMGDLEALEKFVKLAPDTGADAIALIGNLMPKAAKSRDYAAFFRILSEAHLPTAYVPGPQDAPIWEYLREAANVELVHPEMRNVHETFTFWRGPYLVAGVGGEIADEGEPEEHEALRYPAWVAEYRLKALWELKDYPKIFLFHTMPYHKGLNEQGSHEVAHLIKTHNPLLVLVAGKGQKHEMLGASWVVVPGDLSEGEYSLLDLRARKLETGNVR”: the “soluble on expression in E. coli” value is recorded as “soluble”.

Regarding “SNAMLGGIEAGGTKFVCAVGREDGTIIDRIEFPTKMPDETIEKVIQYFSQFSLQAIGIGSFGPVDNDKTSQTYGTITATPKAGWRHYPFLQTVKNEMKIPVGFSTDVNAAALGEFLFGEAKGLDSCLYITIGTGIGAGAIVEGRLLQGLSHPEMGHIYIRRHPDDVYQGKCPYHGDCFEGLASGPAIEARWGKKAADLSDIAQVWELEGYYIAQALAQYILILAPKKIILGGGVMQQKQVFSYIYQYVPKIMNSYLDFSELSDDISDYIVPPRLGSNAGIIGTLVLAHQALQAEAASGEVRS”, the “soluble on expression in E. coli” value was “soluble”.

Turning to “MLSKFVVVEVSNSNNTMTLVEYLVTHGFDKFAVVTDLVDHPSFKYKDGSSSPESPSTTASTAAQHTPPRTAVSTPTSINTPVPPHQNKQRHSIDKIAANLSTKKVSPSSIEKQLQRTSHNPLHQLSTPHALSQLQKLLEEQHKINQMNIQKKEQERQQAEIQRILLQQANAAQINHSFGLERLTPEYDDNHHSETISKASSEDLKTEPDSTDFGLGTSDDQVRASMLHLLHPVFAPAFGMLDAENIFGAASKPTTPASKRRNTDSNGAPSKKHRWLPVNELEESRSSRGKNCGRVHCKATYKCALCGKPTTLNSTGSRWNLLRHVIMIHSDCKPYKCWDCDFTGIKSNVISHARQCRHNAEDAHDITTDEMRAEWNLRLHECFPDYVRAKERGWQPEEVTVKKEEVEESPTLVKQELTLVKQEPTFAEQLEPMAQPLV”, the “soluble on expression in E. coli” value was “soluble”.

As to “MAHHHHHHMKGKGPIKIVLFGAPGVGKGTFAEILSKKENLKHINMGNILREEIKRKTTIGKEIDKVVTSGNLVGDDLIIRIVKDEIAKVTIQKDCYFKGFILDGFPRNLFQCNELAKITNIDLFINIYMPRHILIKKIMGRRICNDCNRNFNVVHIREDSYDMLPILPPQDCETCKGNPKLQTRSDDSEEIVAHRLNTYELTNSPLINFFKNSNCNFVDFEIKRGLQDFDSFYRIVSQNL”, the “soluble on expression in E. coli” value is recorded as “not soluble”.

For “GPGSMHLSELCRDSNIDVIIARLRQVAPLEPAPAFSLSEGAADDDTTPATGHSDFHGLWSYQDNDGRTAFHWAIALKNFDLARKLMQAPYNSPVLTEDEEWSTPFATACSVGAPLDLLREILDRSVVELAAHMKQKETQQNPTSEEQNSSSAAVTEPAEGSSDGKPTKFLSDMPGILQPVDGTPASISAVLVDAEDATGQTPLLLAVGRGHLSIVRFLLENGANLMHQNRRGQSCLHRAVNRGNMELVEFLVSTSENNAKSKAVHRVWMDLRDKHGDSALFYASMDNNEEIGRYLLRHGADRELRNADGKAFWEV”, the “soluble on expression in E. coli” value is listed as “soluble”.

Regarding “MPYYTNDDNDVDDFTEYDPMPYSGGYDITVTYGRSIPPSDETCYPLSSLSGDAFEYQRPNFSSNHDSSAYDDQALKTEYSSYARPGPVGSGSDFGRKPNSGYGGRTEVEYGRKTESEHGSGYGGRIESDYVKPSYGGHEDDGDDGHKKHSGKDYDDGDEKSKKKEKEKKKDKKKDGNNSEDDEFKKKKKKEQYKEHHDDDDYDEKKKKKKDYNDDDEKKKKKHYNDDDDEKKKKHNYNDDDDEKKKKKEYHDDEDKKKKKHYDNDDDEKKKKKDHRDDDDEKKKKKDKHHKGHD”, the “soluble on expression in E. coli” value is “soluble”.

Regarding “MSSALLRAAYAYDRLRAHPPEVAGQIATAMASAVHPKGEEPVFLELGVGTGRIALPLIARGYRYIALDADAAMLEVFRQKIAGVDRKVQVVQADARAIPLPDESVHGVIVVHLWHLVPDWPKVLAEAIRVLKPGGALLEGWDQAEASPEWTLQERWRAFAAEEGFPVERGLHAKRLKEVEEALRRLGLKPRTREVARWREERTPREALEALSERLYSFTQGLPEPVHARVMERLWAWAEAELGDLDRPFPVEKRFLLRVSRLG”, the “soluble on expression in E. coli” value is “soluble”.

For the sequence “MKDIIIASFYKFIPLNDFESLREPILTKMHEIGIKGTIILAHEGVNGGFAGNREQMNVFYDYLRSDSRFADLHFKETYDNKNPFDKAKVKLRKEIVTMGVQKVDPSYNAGTYLSPEEWHQFIQDPNVILLDTRNDYEYELGTFKNAINPDIENFREFPDYVQRNLIDKKDKKIAMFCTGGIRCEKTTAYMKELGFEHVYQLHDGILNYLESIPESESLWEGKCFVFDDRVAVDQKLDRVYPQLPQDYKYEREQK”, the “soluble on expression in E. coli” value is on record as “not soluble”.

Regarding “MRSATDLLDELNAVDESARIEAKRASDMGKSVMETVIAFANEPGLDGGYLLLGVDWAINDKGDTVYRPVGLPDPDKVQRDLASQCASMLNVALRPEMQLEQVGGKTLLVVYVPEADVTHKPIYKKATGLPGGAYRRIGSSDQRCVDEDLWVLRGESQPLHGPDSSILSDARADDFDPTAIAAYRRERARINPQAEELDYGDEDMLEALGALRRVDGVLQPTLAGIVLFGKPLALRRLLPMVRIDYIRVPGNEWVEDPENRFQSIDIRKPLMLALPLAEASIIDELPKGFRLPEGQLQSVQEPILPRKVIREALANAAMHRNYTLHSPTQIIRYSNRIEIRNVGYSLKEPAQLGLPGSRLRNPAIAAVLHDLHLAEAKGTGIRAMRRLAADAGLPLPEFHSDRQANEFKLTLFLHNLLTEEDHTWLRNYAGSTLGPDEAKVLIYVRATGAVDNTACRDFCGSDTLAASMVLRRLRDRGLLEKRGAGSRTYYTLAGNEPRPTLESAQSELPLDVPADTPPVGQPQPAEAVAGQQACNPQLATLPPELATLLATLQGRISSEALRDGIRRLCQWAPQSGDQLATLLGKDRDYLRNKHLIPMVRDGQLRFRYPESAKHPHQAYVAPEDKRNDLEHHHHHH”, the “soluble on expression in E. coli” value is given as “soluble”.

Regarding “MKQGLQLRLSQQLAMTPQLQQAIRLLQLSTLELQQELQQALENNPLLEQTDLHDEIDTQQPQDNDPLDTADALEQKEMPEELPLDASWDEIYTAGTPSGPSGDYIDDELPVYQGETTQSLQDYLMWQVELTPFSDTDRAIATSIVDAVDDTGYLTVSLDEIRESMGDVEVDLDEVEAVLKRIQRFDPVGVAAKDLRDCLLIQLSQFDKSTPWLEEARLIICDHLDLLANHDFRTLMRVTRLKEEVLKEAVNLIQSLDPRPGQSIQTGEPEYVIPDVLVRKHNGRWTVELNSDSIPRLQINQHYAAMCNSARNDADSQFIRSNLQDAKWLIKSLESRNDTLLRVSRCIVEQQQAFFEQGEEYMKPMVLADIAQAVEMHESTISRVTTQKYLHSPRGIFELKYFFSSHVNTEGGGEASSTAIRALVKKLIAAENPAKPLSDSKLTSLLSEQGIMVARRTVAKYRESLSIPPSNQRKQLV”, the “soluble on expression in E. coli” value is reported as “not soluble”.

With “MQLDPGRGYDLIGDVHGCAHTLDRLLDLLGYRLQGGVWRHPRRQALFLGDIVDRGPRIREALHRVHAMVDAGEALCIMGNHEFNALGWSTPAAPGSGRQYVREHTPRHARLIKETLEQFEGHDADWRDFLGWFQQLPLFLDAGRFRMVHACWDGELIATLRRQFPDGRISEAFLQESAEPGSFADLACNRLLRGTDMRLPHGATLTSSDGYTRAFFRTKFWVEDEAPRTYGDIVFQPDALPEAIAREPLSEEQKSSLLTYGADEPLLFVGHYWRRGTPAPIRPNLACLDYSAVMYGKLAAYRLDEETRLDRHKFVWVEVKRPEADE”, the “soluble on expression in E. coli” value is “soluble”.

For the sequence “MGSDKIHHHHHHMIHTLQAQSNEITIPFAELDLLSHLTSEFEPKLFQQKIERLHQLDPGHPLPGIAKAYAFFHEQNFSAARRQLEQARSETGDHVRAHLLLGLMSEVENFQHEAERHFLDALSLFPEEPSVHRHLAVHYHEREFFGEAASHALQYLKKIGPGGEGTLMTIDMMQSMPGHDEHVLESLYSLLFEIPEHHHDMVFHSIAANNAEMRYELFHQALDGEPDEATVFRLDSMLSLMVEHSMWAAVYDQTKDRMCRTVFDTLCRDLTYRHAGIRSIPLYLTIRSRYFMRCLLHRS”, the “soluble on expression in E. coli” value was “not soluble”.

Turning to “MDHLDDLVDLYEYRVEDLLQGRTPKGGKQALLRLRQLLIQSRLPGPLAKRFRQADARFRAQRRALAPEAQAPVELPAIAVPEEPEPPPPEASPLAALALKVWRLQVERDVKARLEALLAGRREELRLIHAFLDNFALYRETPGFKRDFNLSRFVPTRPIPSLSDTLVDLDDPKVAQALVVDFLETARELPKLLPLPPEETRTYVRRFLNRLLEWEGAYNLPPKPDLPALRRALEEARRLGAGEKEVAQLEERLRKAAQEARRRDLLLEEEKGRFRVALEKVVALLSLLPTPQGETPWPRVPEPGQEEEGLLTLRLAPGPVALGPLTLTLSHAGGTWYLGLEGEDHPLEDTLVLPWEDLEVWAVRENDLLHLRLEARSGLRLYELLAEGRLLAYLLHPGKDYAYLRLLRGLSTRLKGEFQAQAFGPALAEKYRKAPEEALQDFARKGLELTLKRLGQADPLPLLQEVGQALGLEAEAQTLGQALREYLGRRPPTRETLGGEVHFLALTPEPQALKLDQHVLSVRLKEDAVYLGQAGEVPRRLKDLLVYRLGERALVLAREGRRLAYTLLPLP”, the “soluble on expression in E. coli” value is listed as “soluble”.

In the case of “MSNTMQGAHYPQMAFDPTWQMHPAYATATAFNPYNVSFDFTRSPNTSGGSDESMSDGSKIDPKRSPKYLEKRMKNNEAAKKSRASRKHREQKNQTENELLKRKNAALEEELKQAKCELAQMQITIRDMSIEREAYRRENEMLKMVNNKFADSKFEPPQPLRDMTNCNLPYKYELLS”, the “soluble on expression in E. coli” value was “not soluble”.
